The nature of data set [1]: folding stability dG unfold from chymotrypsin proteolysis; higher = more stable. An outline of the steps: (§1)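 Designed mini-proteins (under 80 residues, no cysteine) in a PA-tagged cDNA display construct were digested with trypsin and chymotrypsin. Each protease was used at 11 concentrations (threefold dilutions) plus a no-protease condition, followed by sequencing. K50 was inferred by Bayesian fitting of sequencing counts, and unfolding free energy was derived against a sequence-predicted unfolded-state K50 and a shared folded-state K50, per protease or combined. Only designs with AlphaFold2 dimer inter-PAE above 15 were kept.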

A short description of data set [2]: folding stability dG unfold from trypsin proteolysis; higher = more stable. An outline of the steps:
as §1

Data set [3] in a line: folding stability dG unfold (combined trypsin and chymotrypsin); higher = more stable. An outline of the steps:
as §1

± gives the half width of the 95% confidence interval.

For “SAGGSEILKKLFPNVKKIEIEVEEVEVKYSEEEKKANPNKKVKVEVKVKVKIKIKIELEFDKNGKLSAGGSA [r2_404_TrROS_Hall]”, the “folding stability dG unfold” value in data set [1] is 1.92 ± 0.19 kcal/mol; in data set [2], 3.64 ± 0.19 kcal/mol; in data set [3] it was 3.09 ± 0.61 kcal/mol.
For “SAGGSEIRVEYDPSTGELRVLIVLPDGSVILKTVRVEPIDPGIAPDGSPIGAAVSISVEIVPPGELSAGGSA [r2_195_TrMRF]”, in that order: 3.5 ± 0.037 kcal/mol, 3.23 ± 0.1 kcal/mol and 3.39 ± 0.087 kcal/mol.
On to “SAGGSEKKVLVLKFRHPENDKPLFSVRIVLEKPPEDSYKAKIELLDLPEDYVLSPEAIKAILEALKSAGGSA [r2_7_TrMRF]”, for which the “folding stability dG unfold” value came to 2.58 ± 0.11 kcal/mol in data set [1], 2.05 ± 0.036 kcal/mol in data set [2] and 2.3 ± 0.11 kcal/mol in data set [3].
For “SAGGSELENMSLEELLARAEELARELAEETGRTVTVTVEVRVRLPDGSTRTFRFTVTLTVLREEDLSAGGSA [r2_157_TrROS_Hall]”, in that order: 4.739 ± 0.04 kcal/mol, 3.93 ± 0.12 kcal/mol and 4.519 ± 0.041 kcal/mol.
Turning to “SAGGSETVRVEVEVELENGYRVRVEMEFDLETKEMTMRVEVEPVLELSPEELEKLKKLLEELGIEVSAGGSA [r2_304_TrROS_Hall]”, the “folding stability dG unfold” value in data set [1] was found to be 3.43 ± 0.11 kcal/mol; in data set [2], 2.91 ± 0.27 kcal/mol; in data set [3], 3.12 ± 0.17 kcal/mol.
For “SAGGSEVKIVKIESVEIEEENGFLRIKVRATLKFYDKETGELVEEKEVELEVTLKNGKKLTFKIKASAGGSA [r2_271_TrROS_Hall]”, in that order: 3.12 ± 0.086 kcal/mol, 3 ± 0.23 kcal/mol and 3.12 ± 0.58 kcal/mol.
On to “SAGGSFGIEIEFHGNGFVIEMFNPETDTINTMRFKFDPDGQFTEMEMETIPIPPPPPPEKDENGKESAGGSA [r2_375_TrROS]”, for which the figures for the “folding stability dG unfold” value in data set [1], in data set [2] and in data set [3] were 3.16 ± 0.12 kcal/mol, 2.27 ± 0.16 kcal/mol and 2.94 ± 0.19 kcal/mol, respectively.
For “SAGGSFIKITTKLPNRKIEIPIPDAEIEVEGNTVTITFPPGNAEEVKKAVLEASDEVEITEVKIIDESAGGS [r8_490_JUSTAS]”, in that order: 0.871 ± 0.026 kcal/mol, -0.107 ± 0.04 kcal/mol and 0.557 ± 0.087 kcal/mol.
As to “SAGGSFLVPTSSMEEAEEIKNAVLAGEPVTVTPPDGVPVTVKAKSVEVDPETGKVRIIDPSGEKLALSAGGS [r16_254_JUSTAS]”, the entries for the “folding stability dG unfold” value in data set [1], in data set [2] and in data set [3] were 0.414 ± 0.095 kcal/mol, 0.201 ± 0.14 kcal/mol and 0.379 ± 0.1 kcal/mol, respectively.
For the sequence “SAGGSFWVFVIEISVKFEQYGDPDGNWKFEIEKVDVKITEIIPIPPEMMDKLREAKAEGMEPEEILSAGGSA [r2_327_TrROS]”, the “folding stability dG unfold” value stood at 3.49 ± 0.11 kcal/mol in data set [1], 1.65 ± 0.15 kcal/mol in data set [2] and 3.09 ± 0.39 kcal/mol in data set [3].
For “SAGGSGDPNAAPVVVKVTIDITRPTADDSYVTSPVELTLLESEVDEFLAELEKEPDLELKVEVTLESAGGSA [r2_270_JUSTAS]”, in that order: 1.25 ± 0.026 kcal/mol, 0.829 ± 0.063 kcal/mol and 1.07 ± 0.11 kcal/mol.
For “SAGGSGKKVKIKINIVVVFPPGDPDLAKEIAKWFARTIARELQAQGFEDIKDIEIRVHVIPPNQPGFSAGGS [r16_289_TrROS]”, in that order: 3.604 ± 0.035 kcal/mol, 3.11 ± 0.094 kcal/mol and 3.44 ± 0.12 kcal/mol.
In the case of “SAGGSGKVIEIPIELPEDKTITLRLDPETGKAVVEAEENVPLEKVIEAAKKIFEENGFELNGLDISSAGGSA [r2_497_TrMRF]”, the “folding stability dG unfold” value was determined as 0.725 ± 0.092 kcal/mol in data set [1], 0.788 ± 0.032 kcal/mol in data set [2] and 0.782 ± 0.12 kcal/mol in data set [3].
Take “SAGGSGKVIGFSFEVETPEEAEGLFKENRPDLDVKILEVKPEEGYVRLVAVDPDGKPHVFVVPIVGSAGGSA [r2_201_TrMRF]”: the results for the “folding stability dG unfold” value in data set [1], in data set [2] and in data set [3] were 1.34 ± 0.1 kcal/mol, 0.743 ± 0.055 kcal/mol and 1.11 ± 0.091 kcal/mol, respectively.
For “SAGGSGMEKYTVTIDLKFYTPETGKTYTKTVTLTTTSIEEAIKAITEKLTPPDMKIEITSITVTPSSAGGSA [r2_320_JUSTAS]”, in that order: 4.62 ± 0.11 kcal/mol, 4.34 ± 0.25 kcal/mol and 4.62 ± 0.13 kcal/mol.
On the same counts, the results for “SAGGSGMIPVTVDFPPDVSEEEIKAYVEELEKKGYKVLKVEITTEKDAKGNTLRTVTVVLAPPSLLSAGGSA [r2_442_JUSTAS]” are 3.143 ± 0.02 kcal/mol, 3.14 ± 0.048 kcal/mol and 3.15 ± 0.048 kcal/mol.
On the same counts, the results for “SAGGSGMTVEVSVDPSTGTIRIKIKYGDKEYEVTAPVTRLPDGTYAVELKISAPNGPLLETKEITLPLSAGG [r13_59_JUSTAS]” are 1.76 ± 0.024 kcal/mol, 2.46 ± 0.086 kcal/mol and 2.06 ± 0.087 kcal/mol.
For the sequence “SAGGSGMVRQEHEYRGPNGWHMRSEMYYSPENGMMNMEMEWVPVIKLPEDDPAKLKKLLAKEGIPISAGGSA [r2_304_TrROS]”, the “folding stability dG unfold” value in data set [1] is 1.19 ± 0.099 kcal/mol; in data set [2], 0.119 ± 0.16 kcal/mol; in data set [3], 0.803 ± 0.17 kcal/mol.
For “SAGGSGPLLERALEEIREALAKAKEGEEVEIEVKVTVTGPDGRTREFTFRIRFVVKDGKIVKVEIESAGGSA [r2_173_TrROS_Hall]”, in that order: 4.94 ± 0.085 kcal/mol, 3.74 ± 0.22 kcal/mol and 4.66 ± 0.14 kcal/mol.
On the same counts, the results for “SAGGSGPMTRSITITVTPEIVRDEKGNVTATKYTVTITRSPEVSPEEVEALAAELNAAGIPTTVTPSAGGSA [r2_456_JUSTAS]” are 1.65 ± 0.099 kcal/mol, 1.23 ± 0.026 kcal/mol and 1.5 ± 0.083 kcal/mol.
For “SAGGSGRQMVRNIVRHALDQQQQHGKPIDKIYIFGPPNMRKEIKKELEEEGLPPGVKITIVPAEDMQSAGGS [r16_164_TrROS]”, in that order: 0.101 ± 0.51 kcal/mol, 0.761 ± 0.13 kcal/mol and 0.326 ± 0.37 kcal/mol.
As for “SAGGSGSQEVDIDFKFPPNFNMDELAKKIEELPGIDIKPDRYDPENGTYKITINVNDPQAVREIIRSAGGSA [r2_305_TrROS]”, the “folding stability dG unfold” value in data set [1] is -0.497 ± 0.69 kcal/mol; in data set [2] it was 0.0473 ± 0.16 kcal/mol; in data set [3], -0.483 ± 0.5 kcal/mol.
For “SAGGSGTESKEYPDSKVTVTPVPLPLGDGAPVLRVTTVPKLPNGEPVTTVTLVDPDSDVVVTEETLSAGGSA [r2_484_JUSTAS]”, in that order: 0.925 ± 0.012 kcal/mol, -0.0208 ± 0.028 kcal/mol and 0.598 ± 0.044 kcal/mol.
For the sequence “SAGGSIEEAKKAAEKLAKEIAEKKGWTVKSVEVEKLPDGTVRATITIKYPDGSEETIEVTIPPNTPLSAGGS [r8_175_JUSTAS]”, the entries for the “folding stability dG unfold” value in data set [1], in data set [2] and in data set [3] were 0.954 ± 0.039 kcal/mol, 2.63 ± 0.11 kcal/mol and 1.91 ± 0.14 kcal/mol, respectively.
On the same counts, the results for “SAGGSIEELAEELARRFAEENGAAEVRVEVEGLPDNTVLVRVYVRGPDGELLGVVDALIPVPEDELSAGGSA [r2_153_TrMRF]” are 2.09 ± 0.062 kcal/mol, 1.94 ± 0.045 kcal/mol and 2.05 ± 0.085 kcal/mol.
On the same counts, the results for “SAGGSIEEVIEELIKSGKPPSKEEIKEAIKKAIEEEVKKKGKKIPKVNIKKITSNPETGKIPIEIIISAGGS [r16_365_JUSTAS]” are 0.784 ± 0.056 kcal/mol, -0.757 ± 0.41 kcal/mol and 0.356 ± 0.17 kcal/mol.
On the same counts, the results for “SAGGSIKIDEIEPDPPGDRVKVKMDIPVPMYDPNGKPKEPMPIKITAEARVDPENGELAINMDIEMSAGGSA [r2_220_TrROS]” are 1.4 ± 0.33 kcal/mol, 2.73 ± 0.41 kcal/mol and 1.67 ± 0.53 kcal/mol.
“SAGGSISVEELKKLPPDSTLTYTEGDKLYEIKVYKNPEGALSIEITEIDPNTGSPVKTEIVNLEELLSAGGS [r16_763_JUSTAS]”: the “folding stability dG unfold” value in data set [1] came out at 3.53 ± 0.075 kcal/mol; in data set [2] it was 1.63 ± 0.13 kcal/mol; in data set [3], 3.21 ± 0.12 kcal/mol.
On to “SAGGSITVSEDESNLTFTIPVPPTEPLTPEEVRAAAEALLAELGPDIRVLSIERLPDGGYRVEAEVRSAGGS [r8_103_JUSTAS]”, for which the results for the “folding stability dG unfold” value in data set [1], in data set [2] and in data set [3] were 1.6 ± 0.043 kcal/mol, 2.08 ± 0.033 kcal/mol and 1.87 ± 0.037 kcal/mol, respectively.
“SAGGSIVDRIRKILKEYGYTAQVERNGDGITIVVQFNKEQRKKIVSEIQEDFGYPIKIEVMPPGQELSAGGS [r16_514_TrROS]”: the “folding stability dG unfold” value in data set [1] was 1.94 ± 0.027 kcal/mol; in data set [2] it was 1.97 ± 0.06 kcal/mol; in data set [3] it was 2.03 ± 0.11 kcal/mol.
For the sequence “SAGGSKIIITYDKEKNVITIKVEKNGKLLEITIEVKSKEDLEEALKKAEELAKELEKKGYKVEIIPSAGGSA [r2_118_TrROS_Hall]”, the “folding stability dG unfold” value in data set [1] is 2.31 ± 0.07 kcal/mol; in data set [2], 1.95 ± 0.12 kcal/mol; in data set [3], 2.15 ± 0.2 kcal/mol.
Turning to “SAGGSKIRIVEIQPSNGFTIKIRPKNGKKMTIPIPPDDMNDPENWERFARTLAKWFEKNGVKDIEISAGGSA [r2_249_TrROS]”, the “folding stability dG unfold” value in data set [1] was 0.615 ± 0.37 kcal/mol; in data set [2] it was 0.312 ± 0.17 kcal/mol; in data set [3], 0.538 ± 0.26 kcal/mol.
On the same counts, the results for “SAGGSKKKIYKIKIKIEVINEETGEKKTVEIEIEAESLEEALAAIAKALLPEGQTVKIVDIEIEEVSAGGSA [r2_320_TrROS_Hall]” are 3.89 ± 0.079 kcal/mol, 3.42 ± 0.069 kcal/mol and 3.73 ± 0.085 kcal/mol.
On the same counts, the results for “SAGGSKLKNLKSKPFPITFENGGKVTLNVVNIPKSSKPVVNITVIEPNSGKKKTFTVPLEEAKNLLSAGGSA [r2_366_TrMRF]” are 1.16 ± 0.12 kcal/mol, 0.394 ± 0.071 kcal/mol and 0.869 ± 0.089 kcal/mol.
For “SAGGSKPEKIKVVSVEVFPDGLIKVKVKTESGYEATALIVKLPGDKYLIFLTIPANGKPFVFELPASAGGSA [r2_361_TrMRF]”, the “folding stability dG unfold” value in data set [1] turned out to be 2.61 ± 0.031 kcal/mol; in data set [2], 2.36 ± 0.059 kcal/mol; in data set [3], 2.54 ± 0.072 kcal/mol.
For “SAGGSKTVTLTVTVEVNGKTFTVTVTLTYDEETNKLTITVEISAKSEEERERARELVEKLLKELLSSAGGSA [r2_259_TrROS_Hall]”, in that order: 4.95 ± 0.094 kcal/mol, 3.83 ± 0.12 kcal/mol and 4.79 ± 0.13 kcal/mol.

Values taken from the supplement of paper PMC12764529.
